Publication PMC4858151, “Phosphorylation of Human Choline Kinase Beta by Protein Kinase A: Its Impact on Activity and Inhibition” (PLoS ONE, 2016)
Changes are numbered by the printed parent chain. Names may count otherwise.

B1: choline kinase beta (CKβ) (Homo sapiens) (protein)
chain: AAEATAVAGSGAVGGCLAKDGLQQSKCPDTTPKRRRASSLSRDAERRAYQWCREYLGGAWRRVQPEELRVYPVSGGLSNLLFRCSLPDHLPSVGEEPREVLLRLYGAILQGVDSLVLESVMFAILAERSLGPQLYGVFPEGRLEQYIPSRPLKTQELREPVLSAAIATKMAQFHGMEMPFTKEPHWLFGTMERYLKQIQDLPPTGLPEMNLLEMYSLKDEMGNLRKLLESTPSPVVFCHNDIQEGNILLLSEPENADSLMLVDFEYSSYNYRGFDIGNHFCEWVYDYTHEEWPFYKARPTDYPTQEQQLHFIRHYLAEAKKGETLSQEEQRKLEEDLLVEVSRYALASHFFWGLWSILQASMSTIEFGYLDYAQSRFQFYFQQKGQLTSVHSSS
notes: purified recombinant unphosphorylated CKβ
B2: choline kinase beta (CKβ) (Homo sapiens; S39D/S40D) (protein)
chain: B1 chain with S38D, S39D
notes: purified S39D/S40D CKβ

How the values were obtained:
Assay type in all cases: biochemical, Homo sapiens
[1] = substrate: C[N+](C)(C)CCO; experiment: Michaelis-Menten kinetics (Km), PK-LDH coupled assay; conditions: MgCl2, ATP choline binding site
[2] = substrate: NCCO; experiment: as above; conditions: MgCl2, ATP
purified protein = substrate: Nc1ncnc2c1ncn2[C@@H]1O[C@H](COP(=O)(O)OP(=O)(O)OP(=O)(O)O)[C@@H](O)[C@H]1O; experiment: purified protein; conditions: MgCl2

Protein	Km [1]	Vmax [1]	kcat [1]	kcat/Km [1]	Km [2]	Vmax [2]	Km (purified protein)	Vmax (purified protein)	kcat (purified protein)	kcat/Km (purified protein)	kcat [2]	kcat/Km [2]
B1	0.42 ± 0.06 mM	64.3 µmol/min/mg	48.2 s⁻¹	115000 M⁻¹ s⁻¹	0.26 ± 0.01 mM	14.3 µmol/min/mg	0.65 ± 0.03 mM	72.5 µmol/min/mg	21.5 s⁻¹	39100 M⁻¹ s⁻¹	–	–
B2	0.46 ± 0.06 mM	60.4 µmol/min/mg	45.3 s⁻¹	98500 M⁻¹ s⁻¹	0.57 ± 0.02 mM	28.4 µmol/min/mg	0.5853 ± 0.03 mM	67.3 µmol/min/mg	21.3 s⁻¹	37400 M⁻¹ s⁻¹	45.3 s⁻¹	98500 M⁻¹ s⁻¹
